± gives the standard deviation of the averaged measurements.
Test system: ATP
Test: switch fluorescence ratio, 500 uM ATP over buffer (Cy3 cluster intensity, sum of 5 cycles each) (fold (ratio)); higher = stronger signal-on switching upon ATP binding; sequences stand for … in TCGTCGGCAGCGTCAGATGTGTATAAGAGACAGTTTTTTTTTTTTTTTTTTTTTTTTT…TC
Details: aptamer strand: ATP DNA aptamer (quencher-CACCTGGGGGAGTATTGCGGAGGAAGG + anchor), 100 nM annealed; ATP concentration: 500 uM
Method in brief: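 Exposure to 500 uM ATP lasted 15 min at 22 °C before imaging, and a selection-buffer image was taken beforehand, for Cy3-labelled switching-strand clusters on a modified Illumina MiSeq flow-cell annealed to 100 nM quencher-labelled ATP aptamer. Five buffer/ATP cycles were run with NaOH stripping and re-annealing between them. The fluorescence ratio per cluster is summed target-cycle over summed buffer-cycle Cy3 intensity, averaged per switch-domain sequence. Clusters outside 100-1000 RFU were excluded.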

Sequence | switch fluorescence ratio
CGTACCGGTC | 1.04 ± 0.079
CGTACGCCGG | 0.993 ± 0.021
CGTACTTGTT | 1.01 ± 0.035
CGTAGACGAA | 0.974 ± 0.0094
CGTAGACTGC | 1.06 ± 0.024
CGTAGGAAAA | 0.98 ± 0.096
CGTAGGATTT | 0.9554 ± 0.0048
CGTAGGGAAT | 1.014 ± 0.0064
CGTAGGGGGA | 0.984 ± 0.015
CGTAGGGGTT | 0.989 ± 0.028
CGTAGTAGAC | 2.61 ± 0.26
CGTAGTAGGA | 1.04 ± 0.084
CGTAGTGCCC | 1.07 ± 0.048
CGTAGTTTGC | 1.52 ± 0.098
CGTATAATGT | 0.996 ± 0.015
CGTATAGAGA | 0.998 ± 0.039
CGTATAGTAG | 0.958 ± 0.02
CGTATATTAG | 0.96 ± 0.014
CGTATCAATT | 1.003 ± 0.004
CGTATCGTGA | 1.01 ± 0.041
CGTATGACTA | 0.984 ± 0.05
CGTATGGGGA | 1 ± 0.023
CGTATTATGG | 0.998 ± 0.05
CGTATTCTGA | 0.966 ± 0.064
CGTATTGCCA | 1 ± 0.025

Sequence | switch fluorescence ratio
CGTATTTAGT | 0.98 ± 0.035
CGTATTTGGA | 0.985 ± 0.046
CGTATTTTAG | 1 ± 0.029
CGTCAATTTA | 1.12 ± 0.12
CGTCACTAAT | 1.21 ± 0.25
CGTCAGAGCG | 0.9802 ± 0.008
CGTCAGTGCA | 1.01 ± 0.024
CGTCGACGGG | 1.02 ± 0.054
CGTCGGAGGC | 0.986 ± 0.019
CGTCGGCAAA | 3.42 ± 0.21
CGTCGTAGGG | 0.985 ± 0.03
CGTCTGTGGG | 0.9844 ± 0.0041
CGTGAACATA | 1.02 ± 0.034
CGTGAATTGT | 1.044 ± 0.01
CGTGACATTG | 1.01 ± 0.013
CGTGAGATTA | 0.9846 ± 0.0009
CGTGAGCTAA | 1.41 ± 0.19
CGTGATAAGT | 1.02 ± 0.021
CGTGATCAGC | 1.017 ± 0.0098
CGTGCATGAG | 1.01 ± 0.02
CGTGCCCAGC | 1.01 ± 0.025
CGTGCGGATG | 1.02 ± 0.0057
CGTGCGGGGG | 1.01 ± 0.035
CGTGCTAGAA | 1.0154 ± 0.001
CGTGCTAGTC | 1.04 ± 0.055

Sequence | switch fluorescence ratio
CGTGCTCAGA | 0.996 ± 0.025
CGTGCTGGAC | 1.091 ± 0.0065
CGTGGAGGGG | 1.04 ± 0.013
CGTGGAGTCG | 0.989 ± 0.1
CGTGGATAGT | 0.955 ± 0.03
CGTGGCCTGT | 0.994 ± 0.029
CGTGGCGGAT | 0.9709 ± 0.0092
CGTGGCGGTT | 1.09 ± 0.13
CGTGGGATAA | 1.01 ± 0.023
CGTGGGCGGT | 0.9807 ± 0.0031
CGTGGGGAGC | 1.06 ± 0.11
CGTGGGGCGG | 0.999 ± 0.016
CGTGGGGGGC | 1.01 ± 0.02
CGTGGGGGTC | 1.01 ± 0.013
CGTGGGGGTT | 0.973 ± 0.038
CGTGGGGTCA | 0.982 ± 0.024
CGTGGTAGGG | 0.992 ± 0.035
CGTGGTGCGA | 1.02 ± 0.015
CGTGGTTTGC | 1.03 ± 0.053
CGTGTATTGG | 0.987 ± 0.013
CGTGTATTTC | 1.02 ± 0.022
CGTGTCACTT | 1.01 ± 0.023
CGTGTGGGTT | 0.993 ± 0.011
CGTGTGTGGT | 0.994 ± 0.024
CGTGTGTTGA | 1.01 ± 0.013

Sequence | switch fluorescence ratio
CGTGTTGGAC | 1.016 ± 0.0032
CGTGTTGGAG | 0.969 ± 0.011
CGTGTTTCGG | 0.97715 ± 0.00018
CGTGTTTTCC | 1.022 ± 0.0015
CGTGTTTTCT | 0.99 ± 0.031
CGTTAAAATA | 1.01 ± 0.062
CGTTACTCCG | 1.5 ± 0.16
CGTTAGTAAA | 0.9862 ± 0.0035
CGTTATACAG | 1.01 ± 0.026
CGTTATATTC | 1.08 ± 0.031
CGTTCAGCT | 1.01 ± 0.035
CGTTCAGTTC | 0.972 ± 0.053
CGTTCAGTTT | 0.9929 ± 0.0028
CGTTCATTGT | 0.9942 ± 0.0098
CGTTCGGAGG | 0.991 ± 0.037
CGTTCGTTCG | 0.989 ± 0.015
CGTTGACGCG | 1.02 ± 0.016
CGTTGAGATC | 1.06 ± 0.059
CGTTGAGGAC | 1.024 ± 0.0053
CGTTGAGTCG | 0.992 ± 0.06
CGTTGATGTG | 0.99 ± 0.045
CGTTGGAGCG | 1 ± 0.03
CGTTGGGCTC | 1.019 ± 0.0051
CGTTGGGGGT | 0.978 ± 0.022
CGTTGGTGGC | 0.9457 ± 0.0066

Sequence | switch fluorescence ratio
CGTTGGTGTG | 1 ± 0.028
CGTTGTATGG | 1.01 ± 0.046
CGTTGTATTA | 0.996 ± 0.051
CGTTGTGAGG | 1.03 ± 0.038
CGTTGTTACA | 1.04 ± 0.018
CGTTGTTAGT | 1.037 ± 0.0083
CGTTGTTATG | 0.9852 ± 0.0067
CGTTGTTTGG | 0.966 ± 0.058
CGTTTAACTC | 1.05 ± 0.055
CGTTTACTCT | 1.055 ± 0.0043
CGTTTACTTT | 0.984 ± 0.059
CGTTTAGCGT | 1 ± 0.0018
CGTTTAGGTA | 0.982 ± 0.048
CGTTTAGTAG | 1.03 ± 0.013
CGTTTATGTG | 0.9953 ± 0.0089
CGTTTCGCCC | 1.04 ± 0.038
CGTTTCGTGT | 0.972 ± 0.066
CGTTTGGAAC | 1.01 ± 0.055
CGTTTGGGAG | 0.9739 ± 0.0061
CGTTTGGGGT | 1.002 ± 0.0071
CGTTTGTTCT | 1.03 ± 0.061
CGTTTGTTGC | 0.974 ± 0.034
CGTTTGTTGG | 0.984 ± 0.028
CGTTTTATAG | 0.9973 ± 0.0071
CGTTTTATGC | 0.947 ± 0.059

Sequence | switch fluorescence ratio
CGTTTTTCTG | 0.968 ± 0.013
CTAAAATTAA | 1.01 ± 0.031
CTAAACTAGG | 1.02 ± 0.013
CTAAAGGAAG | 1.01 ± 0.029
CTAAAGGACT | 0.9989 ± 0.0015
CTAAATTCGT | 0.987 ± 0.08
CTAACATCCG | 1.06 ± 0.025
CTAACGCCTG | 1.03 ± 0.07
CTAACGGAAT | 1.7 ± 0.34
CTAACGGGTA | 1 ± 0.018
CTAAGATCGG | 1 ± 0.02
CTAAGCTTTG | 1 ± 0.035
CTAAGGCCTG | 0.97 ± 0.072
CTAAGGCGAT | 1.06 ± 0.12
CTAAGGGGCA | 1 ± 0.019
CTAAGGGGTG | 1.022 ± 0.0057
CTAAGGGTTC | 0.999 ± 0.015
CTAAGGTGTT | 1.325 ± 0.011
CTAAGTAGAT | 1.02 ± 0.028
CTAAGTTTGA | 1.03 ± 0.037
CTAATCAGCT | 0.977 ± 0.019
CTAATGACGT | 1.01 ± 0.015
CTAATGGAGC | 0.98 ± 0.017
CTAATTTGCC | 1.02 ± 0.084
CTAATTTTTG | 1 ± 0.024

Sequence | switch fluorescence ratio
CTACAAGTTA | 1.048 ± 0.0027
CTACACGAGA | 1.09 ± 0.019
CTACATGCCC | 1.15 ± 0.18
CTACCGGATT | 1.07 ± 0.012
CTACGAAGTA | 1.01 ± 0.015
CTACTCTCGC | 1.15 ± 0.019
CTACTGGGGA | 1.05 ± 0.036
CTACTGTGGG | 0.9651 ± 0.006
CTACTTAGGG | 1.03 ± 0.036
CTACTTGAGT | 0.985 ± 0.019
CTAGACCAGG | 1.01 ± 0.014
CTAGACGTTT | 1.01 ± 0.047
CTAGAGGGGA | 1.14 ± 0.2
CTAGCAACGT | 1.03 ± 0.067
CTAGGAAGGT | 1.01 ± 0.033
CTAGGAGGCG | 1.03 ± 0.053
CTAGGATCGG | 0.993 ± 0.057
CTAGGATGTA | 0.986 ± 0.015
CTAGGCAGGG | 1.01 ± 0.005
CTAGGCTCAA | 1.004 ± 0.004
CTAGGGCTGA | 0.972 ± 0.013
CTAGGGGGAT | 0.9962 ± 0.0043
CTAGGGGTTT | 1 ± 0.034
CTAGGTGGGG | 1.02 ± 0.025
CTAGGTGTGA | 1.07 ± 0.017

Sequence | switch fluorescence ratio
CTAGGTTTGA | 0.987 ± 0.019
CTAGTCGTAC | 1.03 ± 0.068
CTAGTCTGAA | 0.982 ± 0.031
CTAGTGGTGA | 0.972 ± 0.015
CTAGTTAGCT | 1.015 ± 0.0097
CTAGTTTTTG | 0.997 ± 0.049
CTATAAACGG | 1.03 ± 0.054
CTATAACGTT | 1.01 ± 0.005
CTATACCGTT | 1.003 ± 0.0048
CTATATGGAC | 1.05 ± 0.017
CTATCACAGG | 2.01 ± 0.08
CTATCAGCTA | 1.1 ± 0.03
CTATCCGTGC | 1.287 ± 0.0028
CTATCTGCGG | 1.04 ± 0.046
CTATGAATGG | 0.975 ± 0.057
CTATGAATTA | 0.984 ± 0.024
CTATGCAGTG | 1.03 ± 0.024
CTATGCGGGA | 1.01 ± 0.04
CTATGGGGTT | 0.977 ± 0.011
CTATGGGTTT | 1.024 ± 0.0032
CTATGTCAAC | 1.06 ± 0.023
CTATTAAGTA | 0.9802 ± 0.0064
CTATTACGG | 1.04 ± 0.075
CTATTATCTG | 1.01 ± 0.024
CTATTCTAGG | 1.019 ± 0.0083
